The record followed here is article PMC2923608, “Structural Insights into the Quinolone Resistance Mechanism of Mycobacterium tuberculosis DNA Gyrase” (PLoS ONE, 2010).

Series [1] concerns the molecule itself. Briefly: AUC; sedimentation velocity, 20°C, 42000 rpm, 20 mM Tris pH 8; GA57BK at 1 mg/ml (17.5 µM).
Series [2] concerns the molecule itself. Put plainly: AUC; sedimentation velocity, 20°C, 42000 rpm, 20 mM Tris pH 8; TopBK at 0.5, 1 and 4 mg/ml (18, 37 and 148 µM); the result is told for the concentration corresponding to the crystallization conditions; monomer and dimer.

B1: breakage-reunion domain of DNA gyrase subunit A from M. tuberculosis (GA57BK) (domain or fragment)
chain: MTDTTLPPDDSLDRIEPVDIEQEMQRSYIDYAMSVIVGRALPEVRDGLKPVHRRVLYAMFDSGFRPDRSHAKSARSVAETMGNYHPHGDASIYDSLVRMAQPWSLRYPLVDGQGNFGSPGNDPPAAMRYTEARLTPLAMEMLREIDEETVDFIPNYDGRVQEPTVLPSRFPNLLANGSGGIAVGMATNIPPHNLRELADAVFWALENHDADEEETLAAVMGRVKGPDFPTAGLIVGSQGTADAYKTGRGSIRMRGVVEVEEDSRGRTSLVITELPYQVNHDNFITSIAEQVRDGKLAGISNIEDQSSDRVGLRIVIEIKRDAVAKVVINNLYKHTQLQTSFGANMLAIVDGVPRTLRLDQLIRYYVDHQLDVIVRRTTYRLRKANERAHILRGLVKALDALDEVIALIRASETVDIARAGLIELLDIDEIQAQAILDMQLRRLAALERQRIIDDLAKIEAEIADLEDILAKPERQRGIVRDELAEIVDRHGDDRRTRIIAAD
notes: DNA gyrase subunit A (GyrA), Mycobacterium tuberculosis, breakage-reunion domain, residues 1-502, 57 kDa; also called entire N-terminal GyrA domain
As for B1, the “stoichiometry N” value in series [1] is 2.

B2: Toprim domain of DNA gyrase subunit B from Mycobacterium tuberculosis (TopBK) (domain or fragment)
chain: TDPRKSELYVVEGDSAGGSAKSGRDSMFQAILPLRGKIINVEKARIDRVLKNTEVQAIITALGTGIHDEFDIGKLRYHKIVLMADADVDGQHISTLLLTLLFRFMRPLIENGHVFLAQPPLYKLKWQRSDPEFAYSDRERDGLLEAGLKAGKKINKEDGIQRYKGLGEMDAKELWETTMDPSVRVLRQVTLDDAAAADELFSILMGEDVDARRSFITRNAKDVRFLDV
notes: DNA gyrase subunit B (GyrB), Mycobacterium tuberculosis, Toprim domain; the methods give residues 448-675, the results give 448-654 (the crystal model runs from T448 to E654); also called C-terminal GyrB domain
As for B2, the “stoichiometry N” value in series [2] turned out to be 2.
